In article doi:10.1101/2023.11.08.566258:

Biological target: Prominin-1 (Prom1) W795R, C-terminally Strep-tagged (human)
Test: co-IP; EVs from cells co-transfected with Strep-tagged and mScarlet-tagged Prom1, solubilized with 1% DDM; Strep resin; co-purified Prom1-mScarlet measured by fluorescence imaging of the resin beads (CY3 filter set); control with Prom1-mScarlet alone

“Prominin-1 (Prom1) W795R, C-terminally Strep-tagged (natural protein)” gave a co-purified mScarlet fluorescence, percent of WT Prom1 of 60%.
